# In article PMC7052193, “Nanobody-enabled monitoring of kappa opioid receptor states” (Nature Communications, 2020):
# “And” between values parts separate entries of the source, which are not always exact repeats. Equal entries are not always repeated.
# Legend:
# [1] = molecular target: KOR (Homo sapiens, UniProt P41145); test: BRET assay, KOR-Rluc and Nb6-mVenus: Nb6 binding / agonist-induced dissociation; assay type: cell-based
# [2] = molecular target: human KOR (Homo sapiens, UniProt P41145, D266A); test: as above; assay type: cell-based
# [3] = molecular target: T1, human KOR (Homo sapiens, UniProt P41145, D266L); test: as above; assay type: cell-based
# T1 construct: expressed in transfected cells; host or cells: HEK 293T
# [4] = molecular target: human KOR (Homo sapiens, UniProt P41145, L253A); test: as above; assay type: cell-based
# [5] = molecular target: T2, human KOR (Homo sapiens, UniProt P41145, R257A); test: as above; assay type: cell-based
# T2 construct: expressed in transfected cells; host or cells: HEK 293T
# [6] = molecular target: T3, human KOR (Homo sapiens, UniProt P41145, R263A); test: as above; assay type: cell-based
# T3 construct: expressed in transfected cells; host or cells: HEK 293T
# [7] = molecular target: human KOR (Homo sapiens, UniProt P41145, R270A); test: as above; assay type: cell-based
# [8] = molecular target: T4, human KOR (Homo sapiens, UniProt P41145, R270M); test: as above; assay type: cell-based
# T4 construct: expressed in transfected cells; host or cells: HEK 293T
# [9] = molecular target: T5, human KOR (Homo sapiens, UniProt P41145, R271A); test: as above; assay type: cell-based
# T5 construct: expressed in transfected cells; host or cells: HEK 293T
# [10] = molecular target: human KOR (Homo sapiens, UniProt P41145, R274A); test: as above; assay type: cell-based
# [11] = molecular target: T6, 5-HT2AR (Homo sapiens, UniProt P28223); assay type: cell-based; settings: wild-type 5-HT2AR
# T6 construct: expressed in transfected cells; host or cells: HEK 293T
# [12] = molecular target: T7, ETA (Homo sapiens, UniProt P25101); assay type: cell-based; settings: wild-type ETA
# T7 construct: expressed in transfected cells; host or cells: HEK 293T
# T7 sequence (P25101 21-427): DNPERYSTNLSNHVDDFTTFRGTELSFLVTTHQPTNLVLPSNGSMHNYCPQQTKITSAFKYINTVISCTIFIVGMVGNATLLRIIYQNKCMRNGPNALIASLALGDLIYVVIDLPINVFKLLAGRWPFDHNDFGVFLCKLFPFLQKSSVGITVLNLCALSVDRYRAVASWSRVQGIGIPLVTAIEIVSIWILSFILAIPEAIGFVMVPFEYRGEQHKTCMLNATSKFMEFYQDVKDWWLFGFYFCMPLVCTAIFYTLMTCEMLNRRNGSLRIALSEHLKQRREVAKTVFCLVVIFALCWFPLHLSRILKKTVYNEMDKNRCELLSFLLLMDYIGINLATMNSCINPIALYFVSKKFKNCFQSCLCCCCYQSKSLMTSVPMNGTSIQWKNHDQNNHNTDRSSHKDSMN
# [13] = test system: GPR111; test: BRET assay GPR111 / GPR111-KOR and Nb6, basal state; assay type: cell-based
# [14] = test system: GPR149; assay type: cell-based; settings: GPR149-KOR and Nb6
# [15] = molecular target: T8, GPR151 (Homo sapiens, UniProt Q8TDV0); assay type: cell-based; settings: GPR151 and Nb6
# T8 construct: expressed in transfected cells; host or cells: HEK 293T
# T8 sequence (Q8TDV0 1-419): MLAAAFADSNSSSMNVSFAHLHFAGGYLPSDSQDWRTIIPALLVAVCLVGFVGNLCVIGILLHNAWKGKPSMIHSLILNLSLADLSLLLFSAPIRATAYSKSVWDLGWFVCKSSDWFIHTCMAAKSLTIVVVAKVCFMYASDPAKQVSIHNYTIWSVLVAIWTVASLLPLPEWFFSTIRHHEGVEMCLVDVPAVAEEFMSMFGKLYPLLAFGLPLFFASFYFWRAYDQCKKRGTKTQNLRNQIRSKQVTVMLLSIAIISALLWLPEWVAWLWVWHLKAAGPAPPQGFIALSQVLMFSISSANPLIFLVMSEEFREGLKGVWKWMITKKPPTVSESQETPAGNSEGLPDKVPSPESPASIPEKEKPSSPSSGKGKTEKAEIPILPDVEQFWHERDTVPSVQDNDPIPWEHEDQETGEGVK
# [16] = test system: GPR151; assay type: cell-based; settings: GPR151-KOR and Nb6
# [17] = molecular target: T9, human KOR containing C-terminal Renilla luciferase (RLuc8) (human, UniProt P41145); test: FRET or BRET; kinetic BRET in HEK 293T cells co-expressing KOR-Rluc and Nb6-mVenus or Nb39-mVenus; 10 µM Sal A, then 10 µM JDTic added at the indicated times; t1/2 from one phase exponential decay; settings: partners not purified
# T9 construct: kappa opioid receptor, human, wild type; also called KOR-Rluc; kappa opioid receptor; source: HEK 293T, co-transfected, in live cells; not shown: RLuc8, C-terminal, kept
# T9 sequence (P41145 whole entry): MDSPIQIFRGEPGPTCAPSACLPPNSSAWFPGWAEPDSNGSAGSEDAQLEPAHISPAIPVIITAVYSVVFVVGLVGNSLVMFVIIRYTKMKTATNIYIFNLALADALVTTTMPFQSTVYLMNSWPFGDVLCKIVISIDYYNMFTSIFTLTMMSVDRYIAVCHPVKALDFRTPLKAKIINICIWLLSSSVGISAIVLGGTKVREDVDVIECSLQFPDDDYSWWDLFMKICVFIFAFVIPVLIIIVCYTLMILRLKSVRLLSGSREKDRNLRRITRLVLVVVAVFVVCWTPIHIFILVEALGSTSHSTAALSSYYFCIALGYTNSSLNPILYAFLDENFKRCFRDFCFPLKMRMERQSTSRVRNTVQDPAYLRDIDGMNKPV
# T4 sequence (P41145 whole entry R270M): as the sequence (P41145 whole entry) above, with R270M counted along it
# Sequence of KOR (P41145 whole entry): as the sequence (P41145 whole entry) above
# T2 sequence (P41145 whole entry R257A): as the sequence (P41145 whole entry) above, with R257A counted along it
# T5 sequence (P41145 whole entry R271A): as the sequence (P41145 whole entry) above, with R271A counted along it
# T3 sequence (P41145 whole entry R263A): as the sequence (P41145 whole entry) above, with R263A counted along it
# T1 sequence (P41145 whole entry D266L): as the sequence (P41145 whole entry) above, with D266L counted along it
# T6 sequence (P28223 whole entry): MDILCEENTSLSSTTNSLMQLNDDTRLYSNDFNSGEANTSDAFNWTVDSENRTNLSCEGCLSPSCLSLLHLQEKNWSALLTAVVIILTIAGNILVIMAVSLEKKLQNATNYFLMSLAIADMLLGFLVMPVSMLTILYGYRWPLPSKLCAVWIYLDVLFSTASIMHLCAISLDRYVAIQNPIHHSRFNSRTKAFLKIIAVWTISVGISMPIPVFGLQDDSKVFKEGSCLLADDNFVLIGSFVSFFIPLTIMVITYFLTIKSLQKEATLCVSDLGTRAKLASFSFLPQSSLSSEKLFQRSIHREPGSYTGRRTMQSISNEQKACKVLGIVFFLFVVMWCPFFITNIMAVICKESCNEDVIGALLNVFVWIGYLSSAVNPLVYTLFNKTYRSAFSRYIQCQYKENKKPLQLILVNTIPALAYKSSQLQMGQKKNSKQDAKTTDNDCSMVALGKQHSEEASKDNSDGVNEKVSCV
molecule,measurement,setting,value
"Nb6-mVenus (VHH, as the chain of m2, nanobody chain of PDB 6VI4; source: HEK 293T, co-transfected, in live cells; not shown: mVenus, C-terminal, kept) VHH: QVQLQESGGGLVQAGESLRLSCAASGTIFRLYDMGWYRRVSGNQRELVASITSGGSTKYGDSVKGRFTISRDNAKNTVYLQMSSLKPEDTAVYYCNAEYRTGIWEELLDGWGQGTQVTVSS","Net BRET, KOR mutations with Nb6, source data Figure 3b",[1],1.21 and 1.208 and 1.235 and 1.249 and 1.256 and 1.272
same,"Net BRET, KOR mutations with Nb6, source data Figure 3b",[2],0.1429 and 0.1064 and 0.08886 and 0.09293
same,"Net BRET, KOR mutations with Nb6, source data Figure 3b",[3],0.05761 and 0.05183 and 0.0517 and 0.0557 and 0.08302 and 0.08918
same,"Net BRET, KOR mutations with Nb6, source data Figure 3b",[4],1.189 and 1.193 and 1.2037 and 1.27 and 1.206 and 1.301
same,"Net BRET, KOR mutations with Nb6, source data Figure 3b",[5],1.007 and 0.9978 and 1.013 and 1.028 and 1.043 and 1.085
same,"Net BRET, KOR mutations with Nb6, source data Figure 3b",[6],0.9862 and 0.9845 and 1.038 and 1.045 and 1.021 and 1.043
same,"Net BRET, KOR mutations with Nb6, source data Figure 3b",[7],0.07102 and 0.06841 and 0.07532 and 0.07378 and 0.08027 and 0.09204
same,"Net BRET, KOR mutations with Nb6, source data Figure 3b",[8],0.05686 and 0.05346 and 0.04737 and 0.04878 and 0.05049 and 0.05323
same,"Net BRET, KOR mutations with Nb6, source data Figure 3b",[9],1.2246 and 1.2 and 1.237 and 1.199 and 1.227 and 1.2457
same,"Net BRET, KOR mutations with Nb6, source data Figure 3b",[10],1.098 and 1.114 and 1.1115 and 1.116 and 1.123 and 1.128
same,interaction with Nb6 in the BRET assay,[11],did not display measurable interaction
same,interaction with Nb6 in the BRET assay,[12],did not display measurable interaction
same,"BRET receptor and Nb6 in basal state, source data Figure 5e",[13],96.3553 and 106.675 and 85.5388 and 88.3471
same,"BRET receptor and Nb6 in basal state, source data Figure 5e",[14],100.397 and 94.0625 and 97.7156 and 109.725
same,"BRET receptor and Nb6 in basal state, source data Figure 5e",[15],4.933 and 5.929 and 5.0734 and 5.659
same,"BRET receptor and Nb6 in basal state, source data Figure 5e",[16],96.9506 and 102.894 and 103.581 and 99.837
same,t1/2 of the decrease in Nb6-KOR BRET after the agonist Sal A,[17],0.833 ± 0.167 min
same,t1/2 of the increase of the BRET ratio after JDTic (following Sal A),[17],1.25 ± 0.2 min
